Measured values: patent EP4782465A1

Columns and labels:
[1] = target: Human insulin receptor subtype B (human) (UniProt P06213); assay: cell-based or functional assay
[2] = target: Insulin receptor of C2C12 mouse myoblasts (mouse) (UniProt P15208); assay: cell-based or functional assay
Chain of Insulin receptor of C2C12 mouse myoblasts (mouse) (P15208 28-1372): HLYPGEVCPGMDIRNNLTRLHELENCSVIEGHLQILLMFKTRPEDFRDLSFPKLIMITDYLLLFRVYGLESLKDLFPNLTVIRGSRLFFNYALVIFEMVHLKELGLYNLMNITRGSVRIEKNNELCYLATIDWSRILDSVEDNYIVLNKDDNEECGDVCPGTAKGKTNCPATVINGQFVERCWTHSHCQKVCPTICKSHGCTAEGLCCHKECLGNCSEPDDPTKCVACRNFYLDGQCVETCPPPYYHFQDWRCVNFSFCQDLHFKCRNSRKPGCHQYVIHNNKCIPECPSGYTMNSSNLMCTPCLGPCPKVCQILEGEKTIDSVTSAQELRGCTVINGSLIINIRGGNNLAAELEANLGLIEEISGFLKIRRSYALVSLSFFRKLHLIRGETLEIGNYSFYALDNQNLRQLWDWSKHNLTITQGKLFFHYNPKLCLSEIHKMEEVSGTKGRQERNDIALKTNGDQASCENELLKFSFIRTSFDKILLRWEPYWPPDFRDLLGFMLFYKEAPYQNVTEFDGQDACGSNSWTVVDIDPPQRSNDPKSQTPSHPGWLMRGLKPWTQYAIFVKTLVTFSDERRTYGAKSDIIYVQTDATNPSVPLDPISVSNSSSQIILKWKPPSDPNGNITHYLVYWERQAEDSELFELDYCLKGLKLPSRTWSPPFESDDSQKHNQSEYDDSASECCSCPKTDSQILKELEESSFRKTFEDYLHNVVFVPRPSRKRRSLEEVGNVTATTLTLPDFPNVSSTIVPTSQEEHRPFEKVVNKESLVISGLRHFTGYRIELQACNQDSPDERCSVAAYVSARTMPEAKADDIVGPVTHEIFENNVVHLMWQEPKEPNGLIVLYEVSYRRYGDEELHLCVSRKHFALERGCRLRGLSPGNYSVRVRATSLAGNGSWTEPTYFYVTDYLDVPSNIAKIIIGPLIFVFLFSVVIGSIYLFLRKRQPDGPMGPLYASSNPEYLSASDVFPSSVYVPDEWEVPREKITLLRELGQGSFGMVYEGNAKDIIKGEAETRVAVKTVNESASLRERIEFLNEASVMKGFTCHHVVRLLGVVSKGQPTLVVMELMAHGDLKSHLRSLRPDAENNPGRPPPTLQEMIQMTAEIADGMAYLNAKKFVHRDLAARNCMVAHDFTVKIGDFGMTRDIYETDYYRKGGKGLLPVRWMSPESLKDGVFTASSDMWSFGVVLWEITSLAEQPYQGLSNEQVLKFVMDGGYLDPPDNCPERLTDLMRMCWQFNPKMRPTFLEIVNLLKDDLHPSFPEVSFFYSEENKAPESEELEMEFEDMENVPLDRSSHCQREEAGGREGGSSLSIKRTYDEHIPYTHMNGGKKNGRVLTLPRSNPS

Substance: LY3209590 (Fc fusion)
- Human insulin receptor subtype B activity (EC50) [1]: 0.116 µM
- AKT phosphorylation activity (EC50) [2]: 0.194 µM
